Assay results taken from patent US20090149343A1, “HISTONES” (priority 2006, published 2009).

Biological target: T1, micro-array bound histone H3 peptides (Homo sapiens, UniProt P68431)
T1 construct: 48 discrete histone H3 peptides containing a wide range of histone modifications at defined residues; made in house; host or cells: peptides by chemical solid phase synthesis
Assay: Histone peptide microarray-based methylation assay (SET 7/9)
Format: biochemical
Conditions: 12 hrs, 30° C. methylation buffer; 100 uM, 70 ul SET 7/9; FIG. 15
Experimental: FIG. 15. SET 7/9 dependent methylation of micro-array bound histone peptides. Microarray slides containing duplicate arrays (dashed boxes) of 48 discrete histone H3 peptides containing a wide range of histone modifications at defined residues. These were incubated with the methyl-transferase enzyme SET7/9 (Bottom panel) or a buffer containing no enzyme (Control, top panel), and subsequently probed with an anti-H3K4me1 antibody.
Methylation assays were performed using the recombinant human histone methyl-transferase SET 7/9 under standard methylation conditions. Assays on the microarrays of the invention were performed under coverslips, enabling small volumes of reagent usage per assay (70 μl). Enzyme-mediated methylation is detected by a histone methyl specific antibody (i.e. anti-histone H3 mono-methyl K4) by standard Western blotting conditions.
Importantly, reproducible patterns of modification are generated on the different peptides (the dashed boxes contain duplicate arrays of 48 epitope spots) allowing users to analyse the effects of defined modifications on methyl transfer by the enzyme.

B1: SET 7/9: recombinant human histone methyl-transferase SET 7/9 (protein)
chain: MDSDDEMVEEAVEGHLDDDGLPHGFCTVTYSSTDRFEGNFVHGEKNGRGKFFFFDGSTLEGYYVDDALQGQGVYTYEDGGVLQGTYVDGELNGPAQEYDTDGRLIFKGQYKDNIRHGVCWIYYPDGGSLVGEVNEDGEMTGEKIAYVYPDERTALYGKFIDGEMIEGKLATLMSTEEGRPHFELMPGNSVYHFDKSTSSCISTNALLPDPYESERVYVAESLISSAGEGLFSKVAVGPNTVMSFYNGVRITHQEVDSRDWALNGNTLSLDEETVIDVPEPYNHVSKYCASLGHKANHSFTPNCIYDMFVHPRFGPIKCIRTLRAVEADEELTVAYGYDHSPPGKSGPEAPEWYQVELKAFQATQQK
enzyme-mediated methylation of array peptides detected by anti-histone H3 mono-methyl K4 antibody: specific enzymatic methyl transferase activity occurs
